Measurements: paper PMC10847457 (Cell Discovery, 2024)

B1: PW5-5 (antibody, V domains shown)
VH: QVQLVQSGAEVKKPGASVKVSCKTSGYTFTDHYMYWVRQAPGQGLEWMGVINPDAGSVTYAQKFQGRVTMTSDTSTSTVYMELSSLRSEDTAVYYCARDLFFIPAANSFDYWGQGTLVTVSS
VL: EIVLTQSPATLSLSPGERATLSCRASQSVSSYLAWYQQKPGQAPRLLIYDATNRATGIPARFSGSGSGTDFTLTISSLEPEDFAVYYCQHRSNWPRMFTFGQGTKLEIK
notes: also called PW5-5 IgG; IgG PW5-5
B2: PW5-535 (antibody, V domains shown)
VH: EVRLVESGGGLVQPGGSLRLSCAASGFTFRNYDIHWVRQTTGKGLEWVSAVGTSGDTYYLDSVKGRFTISREDAKKSVYLQMNSLRAGDTAMYYCVRGDASPDNIYYYMDVWGTGTRVIVSS
VL: DIQVTQSPSPLSASVGDRVTITCRASQTIGKYLNWYHQIPGKAPKLLISAASTLHSGVPSRFSGRGSGTDFTLTISSLQPEDFGTYYCQQSYSSPPWTFGQGTKVEIK

Biological target: MERS-CoV S trimer (stabilized soluble S2P) (MERS-CoV, strain not named; stand-in …, UniProt K9N5Q8, stabilised)
Assay: ELISA
Conditions: both partners purified

| Binder | binding result |
| --- | --- |
| B1 | binds |
| B2 | binds |
